Test results: the RNAGym collection of RNA variant scans (doi:10.1073/pnas.2313332121)
Variants at the floor of the assay were thinned out.

B1: TPR 5TU (parent)
chain: GGAUCUUCUCGAUCUAACAAAAAAGACAAAUCUGCCACAAAGCUUGAGAGCAUCUUCGGAUGCAGAGGCGGCAGCCUUCGGUGGCGCGAUAGCGCCAACGUUCUCAACUAUGACACGCAAAACGCGUGCUCCGUUGAAUGGAGUUUAUCAUG

Variants of: B1
Assay: polymerase ribozyme fitness, log enrichment relative to wild type (log ratio); higher = more active; in vitro selection for triplet polymerase activity
Outline: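 Each subunit of a heterodimeric triplet polymerase ribozyme was represented by a PCR-built, transcribed mutant library that underwent triplicate single-round in vitro selection with frozen incubation at −7 °C. Extended constructs were recovered by gel excision, streptavidin-bead capture and RT-PCR, and Illumina sequencing of input and output libraries kept genotypes with ≥10 input reads and ≥1 read per output. Fitness is the logarithm of genotype enrichment relative to wild-type enrichment, from inverse-variance-weighted replicate averages, with a logarithm base of 2.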

Question: For C10U A12C C54A C85U C108U, which “polymerase ribozyme fitness (log ratio)” value is on record?
Answer: ≤ -4.2

Question: Which “polymerase ribozyme fitness (log ratio)” value does the source give for G11U C76A G83U C85A A137G here?
Answer: ≤ -4.2

Question: With C10G U53C C93U A107G as the variant, how does the “polymerase ribozyme fitness (log ratio)” value read?
Answer: ≤ -4.2

Question: Which “polymerase ribozyme fitness (log ratio)” value does the source give for G11A C14G A30U U44A U45A G92U here?
Answer: ≤ -4.2

Question: For C10U A37C C75U C95G, which “polymerase ribozyme fitness (log ratio)” value is on record?
Answer: ≤ -4.2

Question: With C10G U15G A23C G62C A97C C125U as the variant, how does the “polymerase ribozyme fitness (log ratio)” value read?
Answer: ≤ -4.2

Question: Which “polymerase ribozyme fitness (log ratio)” value does the source give for G11A A21U C51U U53A U55G C57U C96A A110C here?
Answer: ≤ -4.2

Question: With C10U A22U A29G U53G C75A G83A A106U A150C as the variant, how does the “polymerase ribozyme fitness (log ratio)” value read?
Answer: ≤ -4.2

Question: For G11A G67A C79G C87A C114G A137G, which “polymerase ribozyme fitness (log ratio)” value is on record?
Answer: ≤ -4.2

Question: Which “polymerase ribozyme fitness (log ratio)” value does the source give for G11A A41U A52U U55A C118U here?
Answer: ≤ -4.2

Question: Which “polymerase ribozyme fitness (log ratio)” value does the source give for C10U G70U C87A C118U here?
Answer: ≤ -4.2

Question: With C10U C14G C76U A106G A107G C108U as the variant, how does the “polymerase ribozyme fitness (log ratio)” value read?
Answer: ≤ -4.2

Question: For G11U A29C A89C C125U, which “polymerase ribozyme fitness (log ratio)” value is on record?
Answer: -4.16

Question: With C10U A91U C96A A98U A142G U151C as the variant, how does the “polymerase ribozyme fitness (log ratio)” value read?
Answer: ≤ -4.2

Question: Which “polymerase ribozyme fitness (log ratio)” value does the source give for G11U C18G G58C A60C U78C G83A C96U A115C here?
Answer: ≤ -4.2

Question: With G11C C35U A52C A60G as the variant, how does the “polymerase ribozyme fitness (log ratio)” value read?
Answer: ≤ -4.2

Question: With G11U A23U C57U G86A as the variant, how does the “polymerase ribozyme fitness (log ratio)” value read?
Answer: ≤ -4.2

Question: For C10U A30U A49C C87U A89G C95G U104C C116U A119U G136C, which “polymerase ribozyme fitness (log ratio)” value is on record?
Answer: ≤ -4.2

Question: For G11C C14U A37C C93U, which “polymerase ribozyme fitness (log ratio)” value is on record?
Answer: ≤ -4.2

Question: For G11C A20U C36U A60G C93G, which “polymerase ribozyme fitness (log ratio)” value is on record?
Answer: ≤ -4.2

Question: For C10G G58A G59C G65A C95G C96A A120C, which “polymerase ribozyme fitness (log ratio)” value is on record?
Answer: ≤ -4.2

Question: For G11C G50U G84U A97G, which “polymerase ribozyme fitness (log ratio)” value is on record?
Answer: -3.09

Question: Which “polymerase ribozyme fitness (log ratio)” value does the source give for G11A C57A here?
Answer: -1.44

Question: With C10G G42U G58A G86U A97U U101G G141C as the variant, how does the “polymerase ribozyme fitness (log ratio)” value read?
Answer: ≤ -4.2

Question: Which “polymerase ribozyme fitness (log ratio)” value does the source give for G11A A16U A24U C85A A142C here?
Answer: ≤ -4.2

Question: With C10G U33A C69A C96G as the variant, how does the “polymerase ribozyme fitness (log ratio)” value read?
Answer: ≤ -4.2

Question: Which “polymerase ribozyme fitness (log ratio)” value does the source give for G11C A20U G86C C99G G136C U145G A147C here?
Answer: ≤ -4.2

Question: For G11A G25C G50A A52G C75G U90G C103U U144A, which “polymerase ribozyme fitness (log ratio)” value is on record?
Answer: ≤ -4.2

Question: For C10G G68A C79G, which “polymerase ribozyme fitness (log ratio)” value is on record?
Answer: ≤ -4.2

Question: With G11C U148G as the variant, how does the “polymerase ribozyme fitness (log ratio)” value read?
Answer: ≤ -4.2

Question: With G11C C36U U78C C85G A120C C123A G124A U151C as the variant, how does the “polymerase ribozyme fitness (log ratio)” value read?
Answer: ≤ -4.2

Question: Which “polymerase ribozyme fitness (log ratio)” value does the source give for G11U C54A here?
Answer: -2.47

Question: For C10U A107G, which “polymerase ribozyme fitness (log ratio)” value is on record?
Answer: ≤ -4.2

Question: For C10U G11U A30U C76A A119U A120C A137U, which “polymerase ribozyme fitness (log ratio)” value is on record?
Answer: ≤ -4.2

Question: With C10U C27U U55A G59C G84A as the variant, how does the “polymerase ribozyme fitness (log ratio)” value read?
Answer: ≤ -4.2

Question: Which “polymerase ribozyme fitness (log ratio)” value does the source give for C10U G84A here?
Answer: -3.34

Question: With G11C G83A G141U as the variant, how does the “polymerase ribozyme fitness (log ratio)” value read?
Answer: -0.379

Question: For C10U U55A, which “polymerase ribozyme fitness (log ratio)” value is on record?
Answer: -2.91

Question: For G11U C103G C123G, which “polymerase ribozyme fitness (log ratio)” value is on record?
Answer: -2.44

Question: Which “polymerase ribozyme fitness (log ratio)” value does the source give for G11A U104A A119U G136A U144A here?
Answer: -2.19

Question: Which “polymerase ribozyme fitness (log ratio)” value does the source give for C10G U13G C87U C125U here?
Answer: ≤ -4.2

Question: Which “polymerase ribozyme fitness (log ratio)” value does the source give for G11U A40C G70C C103G here?
Answer: ≤ -4.2

Question: For G11C G59A A73G U82G, which “polymerase ribozyme fitness (log ratio)” value is on record?
Answer: -2.2

Question: Which “polymerase ribozyme fitness (log ratio)” value does the source give for C10U C32U A49C U134C here?
Answer: ≤ -4.2

Question: Which “polymerase ribozyme fitness (log ratio)” value does the source give for G11C A115C here?
Answer: -2.86

Question: With G11A A21C A24C C43U C85A U111C as the variant, how does the “polymerase ribozyme fitness (log ratio)” value read?
Answer: ≤ -4.2

Question: For G11A A24G A60U U78C G92A G100A, which “polymerase ribozyme fitness (log ratio)” value is on record?
Answer: ≤ -4.2

Question: Which “polymerase ribozyme fitness (log ratio)” value does the source give for G11A C54U U61A C95A C149G here?
Answer: ≤ -4.2

Question: With G11A G48C G92U as the variant, how does the “polymerase ribozyme fitness (log ratio)” value read?
Answer: -0.981

Question: Which “polymerase ribozyme fitness (log ratio)” value does the source give for G11U U56A C79G C87G C96U A142G here?
Answer: ≤ -4.2

Question: For C10U C103G C132U, which “polymerase ribozyme fitness (log ratio)” value is on record?
Answer: ≤ -4.2

Question: For C10G U53A G83U A91U A97G C103A, which “polymerase ribozyme fitness (log ratio)” value is on record?
Answer: ≤ -4.2

Question: For G11U C38A C125U, which “polymerase ribozyme fitness (log ratio)” value is on record?
Answer: -2.71

Question: Which “polymerase ribozyme fitness (log ratio)” value does the source give for G11U A73U G81A G83C G86U G126C G136C here?
Answer: ≤ -4.2

Question: With G11C U31C G59C C76A G84U U104A A107U as the variant, how does the “polymerase ribozyme fitness (log ratio)” value read?
Answer: ≤ -4.2

Question: Which “polymerase ribozyme fitness (log ratio)” value does the source give for G11U U33G A66C G84A G128U A137C U145A here?
Answer: ≤ -4.2

Question: With G11U C14G G34U G84U C125G C149G as the variant, how does the “polymerase ribozyme fitness (log ratio)” value read?
Answer: ≤ -4.2

Question: With C10U C32G U145C as the variant, how does the “polymerase ribozyme fitness (log ratio)” value read?
Answer: -4.16

Question: For C10G U44G A49C A52C A64C G74C U104G A122G G141A, which “polymerase ribozyme fitness (log ratio)” value is on record?
Answer: ≤ -4.2

Question: With C10G U13A A23U C32A A41G G71C C87U C105U A115U as the variant, how does the “polymerase ribozyme fitness (log ratio)” value read?
Answer: ≤ -4.2

Question: Which “polymerase ribozyme fitness (log ratio)” value does the source give for G11C C14G A26U C105G U134G here?
Answer: ≤ -4.2

Question: For G11C A12U C14A A28G A52C G62C U78A G112C, which “polymerase ribozyme fitness (log ratio)” value is on record?
Answer: ≤ -4.2

Question: For G11U A23U, which “polymerase ribozyme fitness (log ratio)” value is on record?
Answer: ≤ -4.2

Question: Which “polymerase ribozyme fitness (log ratio)” value does the source give for C10U A16C A23U G62C A64G G83C U102G C114U U127G here?
Answer: ≤ -4.2

Question: With C10U C32U G68U G74A U78A G92A C125A G140U U145G as the variant, how does the “polymerase ribozyme fitness (log ratio)” value read?
Answer: ≤ -4.2

Question: For C10G U56A C57U C69U C95A C99U C108U A121U A147G, which “polymerase ribozyme fitness (log ratio)” value is on record?
Answer: ≤ -4.2

Question: For G11C C14G C93U C125A, which “polymerase ribozyme fitness (log ratio)” value is on record?
Answer: ≤ -4.2

Question: For C10U A17G A52C C75U C99U U102C U127A U135A, which “polymerase ribozyme fitness (log ratio)” value is on record?
Answer: ≤ -4.2

Question: For G11C G58A, which “polymerase ribozyme fitness (log ratio)” value is on record?
Answer: -1.65

Question: Which “polymerase ribozyme fitness (log ratio)” value does the source give for C10U C118U here?
Answer: -2.81

Question: With C10G U13C C85G U109G A115U G140U as the variant, how does the “polymerase ribozyme fitness (log ratio)” value read?
Answer: ≤ -4.2

Question: With C10U C14U A19C U55A G59U A97U C105A A115U G141U U148C as the variant, how does the “polymerase ribozyme fitness (log ratio)” value read?
Answer: ≤ -4.2

Question: Which “polymerase ribozyme fitness (log ratio)” value does the source give for C10U G58U G83A A89C A110G U148A here?
Answer: ≤ -4.2

Question: Which “polymerase ribozyme fitness (log ratio)” value does the source give for C10U G11A A19U U55A C75G G83U here?
Answer: ≤ -4.2

Question: Which “polymerase ribozyme fitness (log ratio)” value does the source give for C10U U13C A17U C76A C105U here?
Answer: ≤ -4.2

Question: For G11A C69U C87U G92C A150G, which “polymerase ribozyme fitness (log ratio)” value is on record?
Answer: -2.89

Question: With C10U A41G A64G G65C A91C as the variant, how does the “polymerase ribozyme fitness (log ratio)” value read?
Answer: ≤ -4.2

Question: With G11C A91U as the variant, how does the “polymerase ribozyme fitness (log ratio)” value read?
Answer: -4.11

Question: With G11U G48C C79A C93G A119G G141U as the variant, how does the “polymerase ribozyme fitness (log ratio)” value read?
Answer: ≤ -4.2

Question: For G11A C51U U55A U56G A142C, which “polymerase ribozyme fitness (log ratio)” value is on record?
Answer: -3.56

Question: For G11C G62A C87G, which “polymerase ribozyme fitness (log ratio)” value is on record?
Answer: ≤ -4.2

Question: With C10G U33G G42C G50U G74C as the variant, how does the “polymerase ribozyme fitness (log ratio)” value read?
Answer: ≤ -4.2

Question: With C10G C85U A91C C105A as the variant, how does the “polymerase ribozyme fitness (log ratio)” value read?
Answer: ≤ -4.2

Question: For C10U C69U A147C U148G C149G, which “polymerase ribozyme fitness (log ratio)” value is on record?
Answer: ≤ -4.2
